This is an account of results in patent US20060246421A1.

The assay has as its target wild-type NS3 protein of hepatitis C virus (hepatitis C virus) (UniProt Q9WMX2). The experiment in a line: cell-based or functional assay.

For the substance “D290A NS3 (ATPase-deficient mutant NS3 protein) (from UniProt Q9WMX2 1027-1657)”, the fold decrease in activity of the HCV-Luc replicon (luciferase) in Huh-7 cells, 48 h is 9 fold.
